Results on 3 molecules are retold here after patent publication US20190292245A1 (published 2019).

Like-named read-outs stand apart in the source and are kept apart here.

Experiment [1] addresses T1, recombinant tau protein (full-length) (human, UniProt P10636 1-441). Kind of experiment: SPR (Biacore).
The target of experiment [2] is T1, recombinant tau protein (full-length). As to the kind of experiment: SPR (Biacore). This is another data set of the same source. A general note: SPR reads the build-up and loss of mass on a sensor chip optically.

T1 sequence (P10636 other isoform, or with tags, fused parts or gaps): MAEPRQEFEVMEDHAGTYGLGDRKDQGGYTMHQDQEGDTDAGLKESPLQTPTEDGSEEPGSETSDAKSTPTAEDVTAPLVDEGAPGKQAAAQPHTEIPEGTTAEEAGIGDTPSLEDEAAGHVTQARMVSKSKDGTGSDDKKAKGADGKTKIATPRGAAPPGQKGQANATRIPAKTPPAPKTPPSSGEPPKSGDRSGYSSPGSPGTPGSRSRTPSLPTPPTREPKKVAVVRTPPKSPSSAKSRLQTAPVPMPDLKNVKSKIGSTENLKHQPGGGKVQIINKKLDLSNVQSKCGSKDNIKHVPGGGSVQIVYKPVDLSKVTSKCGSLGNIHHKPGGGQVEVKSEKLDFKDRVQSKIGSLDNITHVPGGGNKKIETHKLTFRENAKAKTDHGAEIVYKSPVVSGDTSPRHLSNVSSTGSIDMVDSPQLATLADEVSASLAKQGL

B1: 1C9 chimeric humanized antibody (antibody, V domains shown)
VH: EVQLQQSGTVLARPGASVKMSCKTSGYTFTNHWMHWVKQRPGQGLEWIGAIDPGNSDTSYNQKFKGQAKLTAVTSASTAFMELSSLTNEDSAVYYCTRRDFFGGEYAVDYWGQGTSVTVSS
VL: DVVMTQTPLSLPVSLGDQASISCRSSQSLVHSNGNTYLHWYLQKPGQSPKLLIYKVSNRFSGVPDRFSGSGSGTDFTLKISRVEAEDLGVYFCSQSTHVPWTFGGGTKLEIK
As a reminder, the Kd is a measure of binding affinity in units of concentration. For B1, the Kd in experiment [1] came to 3.91 nM.

B2: mouse monoclonal antibody 1C9 (antibody, V domains shown)
VH: B1 VH
VL: B1 VL
As to B2, the Kd in experiment [1] came to 3.39 nM; in experiment [2], 9.51 nM.

B3: Armanezumab (antibody, V domains shown)
VH: QVQLVQSGAEVKKPGASVKVSCKASGYTFTNHWMHWVRQAPGQGLEWMGAIDPGNSDTSYNQKFKGRVTMTRDTSTSTVYMELSSLRSEDTAVYYCARRDFFGGEYAVDYWGQGTLVTVSS
VL: DIVMTQSPLSLPVTPGEPASISCRSSQSLVHSNGNTYLHWYLQKPGQSPQLLIYKVSNRFSGVPDRFSGSGSGTDFTLKISRVEAEDVGVYYCSQSTHVPWTFGQGTKVEIKR
In the case of B3, the Kd in experiment [2] was determined as 48 nM.
